{"source": "patent US20120058126A1", "key": {"[1]": {"target": "human sR3-AP (Ig domains 1-3) P219L (human) (UniProt P05187)", "sequence (P05187 other isoform, or with tags, fused parts or gaps P219L P219L)": "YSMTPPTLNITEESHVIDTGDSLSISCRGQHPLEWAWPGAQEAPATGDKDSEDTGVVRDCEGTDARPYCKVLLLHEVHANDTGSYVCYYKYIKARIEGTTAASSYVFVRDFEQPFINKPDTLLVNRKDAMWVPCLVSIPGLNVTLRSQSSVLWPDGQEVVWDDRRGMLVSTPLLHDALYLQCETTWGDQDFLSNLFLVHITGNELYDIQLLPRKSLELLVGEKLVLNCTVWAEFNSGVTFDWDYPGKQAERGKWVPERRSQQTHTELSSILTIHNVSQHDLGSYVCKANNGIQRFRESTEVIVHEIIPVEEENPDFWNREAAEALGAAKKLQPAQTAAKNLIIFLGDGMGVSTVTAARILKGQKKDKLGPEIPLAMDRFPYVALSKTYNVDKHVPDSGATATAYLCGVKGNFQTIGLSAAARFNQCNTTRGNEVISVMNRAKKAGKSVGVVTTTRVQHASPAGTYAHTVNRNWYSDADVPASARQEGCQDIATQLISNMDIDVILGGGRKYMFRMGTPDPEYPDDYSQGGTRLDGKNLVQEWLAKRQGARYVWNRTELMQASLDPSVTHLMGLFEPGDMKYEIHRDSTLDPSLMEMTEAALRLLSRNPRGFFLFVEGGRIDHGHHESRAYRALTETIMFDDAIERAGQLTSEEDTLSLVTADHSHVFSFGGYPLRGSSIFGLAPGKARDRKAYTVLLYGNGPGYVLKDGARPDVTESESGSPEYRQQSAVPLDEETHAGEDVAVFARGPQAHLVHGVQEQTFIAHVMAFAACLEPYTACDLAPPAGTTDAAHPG", "assay": "sR3-AP binding assay: conditioned medium on VEGF-CΔNΔC-coated plates, AP chemiluminescence, triplicate"}, "[2]": {"target": "human sR3-AP (Ig domains 1-3) V175A (human) (UniProt P05187)", "sequence (P05187 other isoform, or with tags, fused parts or gaps V175A V175A)": "as the sequence (P05187 other isoform, or with tags, fused parts or gaps P219L P219L) above, with V151A, L195P counted along it", "assay": "sR3-AP binding assay: conditioned medium on VEGF-CΔNΔC-coated plates, AP chemiluminescence, triplicate"}}, "data": [{"substance": "recombinant mature human VEGF-CΔNΔC (from UniProt P49767 112-215) (ligand)", "values": [{"measurement": "loss of binding against wild-type human sR3-AP", "setting": "[1]", "result": 75, "unit": "%"}, {"measurement": "loss of binding against wild-type human sR3-AP", "setting": "[2]", "result": 50, "unit": "%"}]}]}
